One data set addresses T1, BrxX:Ocr (BrxX2:Ocr2) (Escherichia coli, UniProt P0DUF9).
T1 construct: gene pglX; full-length BrxX with N-terminal His6 kept plus T7 Ocr with N-His-TEV kept; both expressed in E. coli BW25113; BrxX2:Ocr2 complex; with Protein Ocr (Escherichia phage T7)
T1 sequence (P0DUF9 1-1205): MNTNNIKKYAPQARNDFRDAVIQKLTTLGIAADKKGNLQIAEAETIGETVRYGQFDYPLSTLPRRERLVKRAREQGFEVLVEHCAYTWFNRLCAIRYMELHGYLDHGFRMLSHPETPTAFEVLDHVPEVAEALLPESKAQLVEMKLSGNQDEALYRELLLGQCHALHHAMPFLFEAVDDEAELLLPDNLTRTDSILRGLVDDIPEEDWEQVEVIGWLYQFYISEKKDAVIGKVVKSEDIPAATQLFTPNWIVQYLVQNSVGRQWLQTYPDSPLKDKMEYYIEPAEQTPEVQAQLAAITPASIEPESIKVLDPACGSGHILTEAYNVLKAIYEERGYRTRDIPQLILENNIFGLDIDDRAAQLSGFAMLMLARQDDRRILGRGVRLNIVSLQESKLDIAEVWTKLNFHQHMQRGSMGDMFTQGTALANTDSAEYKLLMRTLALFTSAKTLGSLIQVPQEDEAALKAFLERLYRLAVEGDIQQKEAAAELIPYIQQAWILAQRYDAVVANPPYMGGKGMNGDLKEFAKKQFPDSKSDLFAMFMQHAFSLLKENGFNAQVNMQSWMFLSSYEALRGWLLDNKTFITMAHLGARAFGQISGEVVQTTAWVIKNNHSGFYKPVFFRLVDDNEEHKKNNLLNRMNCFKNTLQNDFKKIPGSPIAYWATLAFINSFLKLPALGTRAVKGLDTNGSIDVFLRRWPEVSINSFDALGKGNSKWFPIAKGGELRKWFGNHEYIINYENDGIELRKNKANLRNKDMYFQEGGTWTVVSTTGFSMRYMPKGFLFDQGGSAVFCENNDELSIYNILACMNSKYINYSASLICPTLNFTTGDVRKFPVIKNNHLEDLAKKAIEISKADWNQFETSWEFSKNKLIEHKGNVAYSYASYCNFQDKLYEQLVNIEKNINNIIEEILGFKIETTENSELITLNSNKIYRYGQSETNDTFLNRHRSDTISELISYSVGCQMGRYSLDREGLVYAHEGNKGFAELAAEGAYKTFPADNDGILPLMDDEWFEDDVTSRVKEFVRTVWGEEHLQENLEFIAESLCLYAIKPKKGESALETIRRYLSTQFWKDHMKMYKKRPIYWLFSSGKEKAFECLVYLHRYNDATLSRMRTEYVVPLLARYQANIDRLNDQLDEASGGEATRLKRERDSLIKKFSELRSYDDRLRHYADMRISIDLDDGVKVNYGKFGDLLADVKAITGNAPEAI
T1 sequence (P03775 1-117 partner): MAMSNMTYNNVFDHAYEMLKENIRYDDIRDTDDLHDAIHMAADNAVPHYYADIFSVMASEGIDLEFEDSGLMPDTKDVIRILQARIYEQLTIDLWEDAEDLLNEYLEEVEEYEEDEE
Description: cryoEM structure ([…] A). Format: binding. The conditions noted are these: Ocr bound, no DNA, Mg2+, CHAPSO, pH 7.5; site: methyltransferase domain pocket; SAM modelled from the DNA-bound structure.

Data set [1] deals with T2, BrxX (PglX) (Escherichia coli HS, UniProt P0DUF9 1-1205).
T2 sequence: T1 sequence (P0DUF9 1-1205)
Description: BLI; 1:1 fit, stimulated by SAM; Kd only in figure; EMSA: 20 nM Cy5-DNA, 0.5x TBE pH 8.0, 35 mM NaCl, 5% glycerol, +/-0.5 mM SAM or SAH, 30 min, room temperature; BLI: 20 mM Tris-HCl pH 8.0, 100 mM NaCl, 0.05 mg/mL BSA, 0.02% Tween-20, +/-0.5 mM SAM, 30 C. The conditions noted are these: protein: recombinant; tags: N-His6; label: 5'-biotin on strand 1; blunt.

In the next data set the target is T3, BrxA (Escherichia coli HS, UniProt P0DUF6 1-213).
T3 sequence: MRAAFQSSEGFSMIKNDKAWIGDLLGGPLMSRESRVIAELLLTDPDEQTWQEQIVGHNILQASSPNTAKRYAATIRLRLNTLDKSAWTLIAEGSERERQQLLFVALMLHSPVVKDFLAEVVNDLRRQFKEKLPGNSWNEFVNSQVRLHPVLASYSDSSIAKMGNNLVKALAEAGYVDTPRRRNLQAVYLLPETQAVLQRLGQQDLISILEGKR
The data set can be described thus: EMSA; EMSA: 20 nM Cy5-DNA, 0.5x TBE pH 8.0, 35 mM NaCl, 5% glycerol, +/-0.5 mM SAM or SAH, 30 min, room temperature; BLI: 20 mM Tris-HCl pH 8.0, 100 mM NaCl, 0.05 mg/mL BSA, 0.02% Tween-20, +/-0.5 mM SAM, 30 C. The conditions noted are these: protein: recombinant; tags: N-His6; label: 5'-Cy5 on strand 1; blunt.

Data set [2] concerns the target T2, BrxX (PglX). Description: EMSA; 0.5 mM SAM; EMSA: 20 nM Cy5-DNA, 0.5x TBE pH 8.0, 35 mM NaCl, 5% glycerol, +/-0.5 mM SAM or SAH, 30 min, room temperature; BLI: 20 mM Tris-HCl pH 8.0, 100 mM NaCl, 0.05 mg/mL BSA, 0.02% Tween-20, +/-0.5 mM SAM, 30 C. As to conditions: protein: recombinant; tags: N-His6; label: 5'-Cy5 on strand 1; blunt.
Data set [3] addresses T2, BrxX (PglX). The data set can be described thus: EMSA; no cofactor; EMSA: 20 nM Cy5-DNA, 0.5x TBE pH 8.0, 35 mM NaCl, 5% glycerol, +/-0.5 mM SAM or SAH, 30 min, room temperature; BLI: 20 mM Tris-HCl pH 8.0, 100 mM NaCl, 0.05 mg/mL BSA, 0.02% Tween-20, +/-0.5 mM SAM, 30 C. As to conditions: protein: recombinant; tags: N-His6; label: 5'-Cy5 on strand 1; blunt.
Data set [4] deals with T2, BrxX (PglX). The data set can be described thus: cryoEM structure (2.2 A); SAM, metal modelled as Mg2+; EMSA: 20 nM Cy5-DNA, 0.5x TBE pH 8.0, 35 mM NaCl, 5% glycerol, +/-0.5 mM SAM or SAH, 30 min, room temperature; BLI: 20 mM Tris-HCl pH 8.0, 100 mM NaCl, 0.05 mg/mL BSA, 0.02% Tween-20, +/-0.5 mM SAM, 30 C. As to conditions: protein: recombinant; tags: N-His6; blunt.
Data set [5] addresses T2, BrxX (PglX). The data set can be described thus: BLI; SAM; heterogeneous binding, no accurate Kd; EMSA: 20 nM Cy5-DNA, 0.5x TBE pH 8.0, 35 mM NaCl, 5% glycerol, +/-0.5 mM SAM or SAH, 30 min, room temperature; BLI: 20 mM Tris-HCl pH 8.0, 100 mM NaCl, 0.05 mg/mL BSA, 0.02% Tween-20, +/-0.5 mM SAM, 30 C. The conditions noted are these: protein: recombinant; tags: N-His6; label: 5'-biotin on strand 1; blunt.

The target of data set [6] is T2, BrxX (PglX). The data set can be described thus: EMSA; non-methylated partner of N9; no cofactor, SAM or SAH; EMSA: 20 nM Cy5-DNA, 0.5x TBE pH 8.0, 35 mM NaCl, 5% glycerol, +/-0.5 mM SAM or SAH, 30 min, room temperature; BLI: 20 mM Tris-HCl pH 8.0, 100 mM NaCl, 0.05 mg/mL BSA, 0.02% Tween-20, +/-0.5 mM SAM, 30 C. The conditions noted are these: protein: recombinant; tags: N-His6; label: 5'-Cy5 on strand 1; blunt.

Data set [7] has as its target T2, BrxX (PglX). Description: EMSA; improved binding; with and without 0.5 mM SAM; EMSA: 20 nM Cy5-DNA, 0.5x TBE pH 8.0, 35 mM NaCl, 5% glycerol, +/-0.5 mM SAM or SAH, 30 min, room temperature; BLI: 20 mM Tris-HCl pH 8.0, 100 mM NaCl, 0.05 mg/mL BSA, 0.02% Tween-20, +/-0.5 mM SAM, 30 C. As to conditions: protein: recombinant; tags: N-His6; label: 5'-Cy5 on strand 1; blunt.

Substitutions are numbered along the chain they refer to. Numbers in names are those of the source.

In the case of `C[S+](CC[C@H](N)C(=O)O)C[C@H]1O[C@@H](n2cnc3c(N)ncnc32)[C@H](O)[C@@H]1O` (some centres unmarked) [S-adenosyl methionine], the “cryoEM structure (2.8 A)” value at BrxX:Ocr (BrxX2:Ocr2) is listed as “The MTD displayed density for a molecule of SAM”.

B1: 20 bp BREX, biotin (dsDNA)
DNA 1: AGTCAGTGGTAAGGTCAGGA
DNA 2: TCCTGACCTTACCACTGACT
Regarding B1, in the data set with BrxX (PglX) [1], the binding result is “binds”.

B2: 43 bp scrambled (dsDNA)
DNA 1: AGTCAGTAGTGAGGTCAGGAATGAGTCAGTCTCACTGTCAGGA
DNA 2: TCCTGACAGTGAGACTGACTCATTCCTGACCTCACTACTGACT
As for B2, the binding result with BrxA is given as “binds”. For the same molecule, the Kd in the data set with BrxX (PglX) [2] is ~300 nM.

B3: 43 bp, 1 BREX site (dsDNA)
DNA 1: AGTCAGTGGTAAGGTCAGGAATGAGTCAGTTGGCAAGTCAGGA
DNA 2: TCCTGACTTGCCAACTGACTCATTCCTGACCTTACCACTGACT
As for B3, in the data set with BrxA, the binding result is on record as “binds”. Further, the Kd in the data set with BrxX (PglX) [2] was ~60 nM; with BrxX (PglX) [3] it was ~300 nM.

B4: 43 bp, 2 BREX sites head-to-tail (H2T) (dsDNA)
DNA 1: B3 DNA 1 with T31G, G33T, C34A, A36G
DNA 2: B3 DNA 2 with T8C, G10T, C11A, A13C
Consider B4, for which the binding result in the data set with BrxX (PglX) [4] is recorded as “binds”.

B5: 40 bp BREX, biotin (dsDNA)
DNA 1: TCAGTAGTCAAGTCAGTGGTAAGGTCAGGACAGGAGTCAG
DNA 2: CTGACTCCTGTCCTGACCTTACCACTGACTTGACTACTGA
With B5, in the data set with BrxX (PglX) [5], the binding result is given as “binds”.

B6: 40 bp BREX (dsDNA)
DNA 1: B5 DNA 1
DNA 2: B5 DNA 2
Take B6: the binding result with BrxX (PglX) [6] was “binds”.

B7: 50 bp BREX (dsDNA)
DNA 1: AGTCATCAGTAGTCAAGTCAGTGGTAAGGTCAGGACAGGAGTCAGCAGGA
DNA 2: TCCTGCTGACTCCTGTCCTGACCTTACCACTGACTTGACTACTGATGACT
With B7, in the data set with BrxX (PglX) [7], the binding result was “binds”.

The values above are taken from paper PMC11842806, “Molecular basis of foreign DNA recognition by BREX anti-phage immunity system” (Nature Communications, 2025).
